B1: NRC3_random_hg19_454_o1 (dsDNA)
DNA 1: GCTGTCCTTTGTAGCAACATGTATGGAAATGGAGGCGCGATTGACAGCGTAGAATGAAGG
DNA 2: CCTTCATTCTACGCTGTCAATCGCGCCTCCATTTCCATACATGTTGCTACAAAGGACAGC
B2: NRC3_random_hg19_40_o1 (dsDNA)
DNA 1: GCAAGAACCAGTGGATTCATAAGGGTGACAGTTCAGGCGATTGACAGCGTAGAATGAAGG
DNA 2: CCTTCATTCTACGCTGTCAATCGCCTGAACTGTCACCCTTATGAATCCACTGGTTCTTGC
B3: NRC3_random_hg19_470_o1 (dsDNA)
DNA 1: GCCAGGAAGGGACAAAGGCCAGGCATGGTGGTTCATGCGATTGACAGCGTAGAATGAAGG
DNA 2: CCTTCATTCTACGCTGTCAATCGCATGAACCACCATGCCTGGCCTTTGTCCCTTCCTGGC
B4: NRC3_wobSeed30_DR1_G16C_o1 (dsDNA)
DNA 1: GCACTAGCAGGCCAACGGTCACTCAAGATTAGTCCGGCGATTGACAGCGTAGAATGAAGG
DNA 2: CCTTCATTCTACGCTGTCAATCGCCGGACTAATCTTGAGTGACCGTTGGCCTGCTAGTGC
B5: NRC3_wobSeed99_DR4_A24C_o1 (dsDNA)
DNA 1: GCTCTCGGAGGACACGAAAGGTCCGAGCTCGACATCGCGATTGACAGCGTAGAATGAAGG
DNA 2: CCTTCATTCTACGCTGTCAATCGCGATGTCGAGCTCGGACCTTTCGTGTCCTCCGAGAGC
B6: NRC3_random_hg19_267_o1 (dsDNA)
DNA 1: GCGCCTCAGTCATGAGTCACATGAAAGTGACTCACCGCGATTGACAGCGTAGAATGAAGG
DNA 2: CCTTCATTCTACGCTGTCAATCGCGGTGAGTCACTTTCATGTGACTCATGACTGAGGCGC
B7: NRC3_random_hg19_116_o1 (dsDNA)
DNA 1: GCTGGGCACATGAGGGATGGGAGTTGATCTCTGTGGGCGATTGACAGCGTAGAATGAAGG
DNA 2: CCTTCATTCTACGCTGTCAATCGCCCACAGAGATCAACTCCCATCCCTCATGTGCCCAGC
B8: NRC3_wobSeed42_DR1_T12A_o1 (dsDNA)
DNA 1: GCTATACAGGGACAAAGGCCAGAGTACGAATGTCGAGCGATTGACAGCGTAGAATGAAGG
DNA 2: CCTTCATTCTACGCTGTCAATCGCTCGACATTCGTACTCTGGCCTTTGTCCCTGTATAGC
B9: NRC3_random_hg19_133_o1 (dsDNA)
DNA 1: GCTCAAGGAGAAAGACACTCCTTTGAAGCGTTGGAAGCGATTGACAGCGTAGAATGAAGG
DNA 2: CCTTCATTCTACGCTGTCAATCGCTTCCAACGCTTCAAAGGAGTGTCTTTCTCCTTGAGC
B10: NRC3_wobSeed32_DR1_G18A_o1 (dsDNA)
DNA 1: GCTCTTGTAGATCAAAGATTAAGAAAGCCGAAGCCTGCGATTGACAGCGTAGAATGAAGG
DNA 2: CCTTCATTCTACGCTGTCAATCGCAGGCTTCGGCTTTCTTAATCTTTGATCTACAAGAGC
B11: NRC3_wobSeed120_DR4_G20T_o1 (dsDNA)
DNA 1: GCCCGAGTAGGTTACGAGGTGGCATTCAGTGCGAATGCGATTGACAGCGTAGAATGAAGG
DNA 2: CCTTCATTCTACGCTGTCAATCGCATTCGCACTGAATGCCACCTCGTAACCTACTCGGGC
B12: NRC3_wobSeed120_DR4_G21C_o1 (dsDNA)
DNA 1: B11 DNA 1 with T20G, G21C
DNA 2: B11 DNA 2 with C40G, A41C
B13: NRC3_random_hg19_279_o1 (dsDNA)
DNA 1: GCTGCAGTGGTAACAGTCTGACTTCTAAACTGCTATGCGATTGACAGCGTAGAATGAAGG
DNA 2: CCTTCATTCTACGCTGTCAATCGCATAGCAGTTTAGAAGTCAGACTGTTACCACTGCAGC
B14: NRC3_wobSeed10_DR0_C13A_o1 (dsDNA)
DNA 1: GCATCGAAAGGTAGAGGTGAGTATAGAGAAAGGGAAGCGATTGACAGCGTAGAATGAAGG
DNA 2: CCTTCATTCTACGCTGTCAATCGCTTCCCTTTCTCTATACTCACCTCTACCTTTCGATGC
B15: NRC3_wobSeed93_DR3_A9C_o1 (dsDNA)
DNA 1: GCAGTCAACGTTCATCTAGGTAACGTAAGATATGCTGCGATTGACAGCGTAGAATGAAGG
DNA 2: CCTTCATTCTACGCTGTCAATCGCAGCATATCTTACGTTACCTAGATGAACGTTGACTGC
B16: NRC3_wobSeed66_DR2_G9C_o1 (dsDNA)
DNA 1: GCAATACACGGTCACTAGGCCAGAGTAGGTACGAATGCGATTGACAGCGTAGAATGAAGG
DNA 2: CCTTCATTCTACGCTGTCAATCGCATTCGTACCTACTCTGGCCTAGTGACCGTGTATTGC
B17: NRC3_random_hg19_466_o1 (dsDNA)
DNA 1: GCAGCTTGACTTTGGTGACATTCTTCCTTCGTCCCTGCGATTGACAGCGTAGAATGAAGG
DNA 2: CCTTCATTCTACGCTGTCAATCGCAGGGACGAAGGAAGAATGTCACCAAAGTCAAGCTGC
B18: NRC3_wobSeed114_DR4_T12C_o1 (dsDNA)
DNA 1: GCAATACAGGGCCATCGTAGGCCAGAGTACGCACAGGCGATTGACAGCGTAGAATGAAGG
DNA 2: CCTTCATTCTACGCTGTCAATCGCCTGTGCGTACTCTGGCCTACGATGGCCCTGTATTGC
B19: NRC3_wobSeed124_DR5_C24G_o1 (dsDNA)
DNA 1: GCCCTACTGGGCCATTCAGAGGTGATTGATCATATGGCGATTGACAGCGTAGAATGAAGG
DNA 2: CCTTCATTCTACGCTGTCAATCGCCATATGATCAATCACCTCTGAATGGCCCAGTAGGGC
B20: NRC3_random_hg19_382_o1 (dsDNA)
DNA 1: GCAATGAAGTGGATGCATGGTTGGTGGCTCAGCAGCGCGATTGACAGCGTAGAATGAAGG
DNA 2: CCTTCATTCTACGCTGTCAATCGCGCTGCTGAGCCACCAACCATGCATCCACTTCATTGC
B21: NRC3_random_hg19_496_o1 (dsDNA)
DNA 1: GCAGCATCTGACAAGGCTGACTACTCCCATCTGGATGCGATTGACAGCGTAGAATGAAGG
DNA 2: CCTTCATTCTACGCTGTCAATCGCATCCAGATGGGAGTAGTCAGCCTTGTCAGATGCTGC
B22: NRC3_wobSeed76_DR3_T21G_o1 (dsDNA)
DNA 1: GCCCTACTGGGCCAAAAAGGGCATTGATGCCGATAAGCGATTGACAGCGTAGAATGAAGG
DNA 2: CCTTCATTCTACGCTGTCAATCGCTTATCGGCATCAATGCCCTTTTTGGCCCAGTAGGGC
B23: NRC3_wobSeed82_DR3_G20T_o1 (dsDNA)
DNA 1: GCATCGAAAGGTCGACGAGTTGAGTATACACCGTTTGCGATTGACAGCGTAGAATGAAGG
DNA 2: CCTTCATTCTACGCTGTCAATCGCAAACGGTGTATACTCAACTCGTCGACCTTTCGATGC

Residue numbers refer to the chain shown, from its start.

Sequence of RARa:RXRa (P10276 whole entry, chain 1 of 2): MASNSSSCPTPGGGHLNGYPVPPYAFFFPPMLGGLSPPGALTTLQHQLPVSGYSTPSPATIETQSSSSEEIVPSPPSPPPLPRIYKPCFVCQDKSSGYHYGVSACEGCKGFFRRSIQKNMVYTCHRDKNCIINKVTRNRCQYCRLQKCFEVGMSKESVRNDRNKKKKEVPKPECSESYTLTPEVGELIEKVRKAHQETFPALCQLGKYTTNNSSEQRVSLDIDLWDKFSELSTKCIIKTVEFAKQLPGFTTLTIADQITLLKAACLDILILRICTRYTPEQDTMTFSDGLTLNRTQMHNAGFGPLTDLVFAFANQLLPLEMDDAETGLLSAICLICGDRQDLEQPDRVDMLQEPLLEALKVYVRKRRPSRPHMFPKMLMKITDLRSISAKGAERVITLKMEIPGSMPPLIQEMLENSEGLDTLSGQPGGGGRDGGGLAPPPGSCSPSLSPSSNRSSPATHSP
Sequence of RARa:RXRa (P19793 whole entry, chain 2 of 2): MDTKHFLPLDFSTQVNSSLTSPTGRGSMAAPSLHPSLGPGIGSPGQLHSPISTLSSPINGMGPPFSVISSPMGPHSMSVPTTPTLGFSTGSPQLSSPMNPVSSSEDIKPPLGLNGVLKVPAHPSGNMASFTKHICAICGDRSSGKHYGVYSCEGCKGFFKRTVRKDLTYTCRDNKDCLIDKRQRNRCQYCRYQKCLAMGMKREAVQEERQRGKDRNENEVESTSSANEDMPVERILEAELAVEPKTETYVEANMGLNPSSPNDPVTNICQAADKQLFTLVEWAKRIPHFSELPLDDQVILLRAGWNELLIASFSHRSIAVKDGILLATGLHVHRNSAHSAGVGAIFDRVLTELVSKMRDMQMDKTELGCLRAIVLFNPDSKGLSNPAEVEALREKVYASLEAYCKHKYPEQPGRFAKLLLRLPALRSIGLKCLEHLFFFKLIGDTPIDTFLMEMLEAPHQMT

This data set deals with RARa:RXRa (Homo sapiens, UniProt P10276;P19793 full;full). Put plainly: no ligand; PBM; 270 nM : 90 nM RXRa; PBS pH 7.4, 2% milk, 0.02% Triton X-100, 1 mM DTT, BSA, 0.4 mg/ml salmon testes DNA. To be noted: tags: His kept;His cleaved; copies: 1;1; label: surface-attached array probe. The method, boiled down:
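Binding z-scores take random background probes as their reference. They come from custom Agilent 4×180K protein-binding microarrays incubated 1 h with ligand-free nuclear receptor dimers, with antibodies against each partner (one per run) detecting binding. Scanned fluorescence was regression-normalized.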
For B1, the binding signal was 0.46 PBM z-score against 500 random probes. To B2 belongs 0.33 PBM z-score against 500 random probes.

Regarding B3, the binding signal is -0.18 PBM z-score against 500 random probes. Under B4 stands 0.08 PBM z-score against 500 random probes; under B5, 0.41 PBM z-score against 500 random probes. Consider B6, for which the binding signal was -0.31 PBM z-score against 500 random probes. On to B7, for which the binding signal was -0.48 PBM z-score against 500 random probes. Under B8 stands 0.27 PBM z-score against 500 random probes; under B9, -0.29 PBM z-score against 500 random probes; under B10, 0.26 PBM z-score against 500 random probes. To B11 belongs 0.47 PBM z-score against 500 random probes; to B12, 0.37 PBM z-score against 500 random probes. Under B13 stands -0.56 PBM z-score against 500 random probes. As to B14, the binding signal was 0.4 PBM z-score against 500 random probes. To B15 belongs 0.24 PBM z-score against 500 random probes; to B16, 0.46 PBM z-score against 500 random probes.

Turning to B17, the binding signal was 0.17 PBM z-score against 500 random probes.

Regarding B18, the binding signal is -0.01 PBM z-score against 500 random probes. In the case of B19, the binding signal was 0.45 PBM z-score against 500 random probes. Under B20 stands -0.69 PBM z-score against 500 random probes; under B21, -0.43 PBM z-score against 500 random probes; under B22, -0.04 PBM z-score against 500 random probes.

As to B23, the binding signal was 3 PBM z-score against 500 random probes.

These data come from publication PMC6555819, “Comprehensive study of nuclear receptor DNA binding provides a revised framework for understanding receptor specificity”.
